Experimental data taken from patent publication US10767162B2, “Methods for differentiation” (PRESIDENT AND FELLOWS OF HARVARD COLLEGE, priority 2014, dated 2020).

Assays:
[1] = system: iNIL ES cells (Ngn2, Isl1, Lhx3); assay: Spinal motor neuron differentiation of iNIL ES cells, beta-3 tubulin (Tubb3) expression; type: cell-based, mouse; conditions: added back into growth factor-free media
Description: FIGS. 11A-11B depict spinal motor neurons. […] FIG. 11B depicts a time course of gene expression for neuronal lineage factors and motor neuron terminal differentiation markers in growth factor-free (N2B27) media.
To generate spinal motor neurons, a mouse ES cell line that overexpressed a combination of three transcription factor lineage specifiers (Ngn2, Isl1, Lhx3) was used. This combination was previously shown to specify spinal motor neuron identity (4). These iNIL cells, as they are also called, upon doxycycline stimulation express the three transcription factors from a single open reading frame coupled by 2A peptides. Growth factor withdrawal was used as the method of cell cycle manipulation in the experiments described in this Example.
As expected from the results on skeletal muscle myotubes, neurons rapidly formed from ES cells upon switching to different types of growth factor-free media. […] Tubb3 expression was confirmed by immunostaining. When either of the ES cell growth factors LIF or Bmp4 were added back into growth factor-free media, there was a strong block on neuronal differentiation.
ESC differentiation. Twenty-four hours before starting, ESCs are trypsinized and spread out as monolayer onto gelatin in standard ES media. […]
(§1) RNA isolation and qPCR. […] Quantitative PCR was performed using Bio-rad's SYBR™ green Supermix. […]

[2] = system: ES cell line that constitutively over-expressed the transcription factor MyoD; assay: Skeletal muscle differentiation efficiency of MyoD ES cells, myosin heavy chain (MHC) immunostaining; type: cell-based, mouse
Description: FIG. 2A depicts a differentiation time course of ES cells to skeletal muscle when exposed to low serum vs high serum conditions. […] LIF was removed at Day 0. Low serum was then initiated at different starting times beginning with Day 0. Cells were then fixed and immunostained for myosin heavy chain (MHC) expression. Differentiating cells in high serum were continuously split to prevent overgrowth. FIG. 2B depicts a comparison of differentiation efficiency generated by two types of defined media (N2B27) and 20% KOSR, low serum media (2% horse serum+insulin), and high serum media (15% FBS). Cells were removed from standard ES media (LIF and serum) and incubated in the specified media starting from Day 0 to Day 4. Continuation of LIF (1000 U/ml) or addition of Bmp4 (10 ng/ml) results in a strong block to muscle differentiation.
To probe the effect of the cell cycle on differentiation an ES cell line was used that constitutively over-expressed the transcription factor MyoD driven off an EF1alpha promoter (5) activated by tamoxifen-induced Cre recombination. […]
However any implication of growth factor effects through the manipulation of serum can be fraught with the inconsistencies and complexities of serum. […] Use of both media in ES cells led to activation of MyoD and terminal myogenesis similar to the 2% low serum media, with some improvement (FIG. 2B; assessed on Day 4). […]

[3] = system: Hnf4α-overexpressing ES cells; assay: Hepatoblast-like differentiation of Hnf4α-overexpressing ES cells, alphafetoprotein (AFP) expression; type: cell-based; conditions: added to growth factor-free media; day 4
Description: FIGS. 13A-13B depict hepatoblast-like cells. […] Alpha-fetoprotein mRNA expression after 4 days in media of different growth factor content. FIG. 13B depicts a time course of gene expression for hepatic lineage factors and hepatocyte markers in growth factor-free (N2B27) media.
One essential lineage specifying factor for hepatocytes is hepatic nuclear factor 4α (Hnf4α)(6). Switching of Hnf4α-overexpressing ES cells to growth factor-free or growth factor-reduced media led to the activation of a subset of hepatic genes. At day 0, LIF and doxycycline were removed and the media was either switched or kept to 15% FBS. By day 4, there were high levels of alphafetoprotein (AFP) that could be detected in the cells differentiated in the growth factor-free or growth factor-reduced media and less than 10% the level of AFP in cells in 15% FBS (FIG. 13A and FIG. 16). AFP expression could be confirmed by immunostaining. While this activation by growth factor withdrawal was similar to the pattern seen in previous cell types, there was an additional interesting point of variation compared to other lineages examined so far. […] Albumin production was also detected, as was Sox17, Pparα, Cdh3, Tbx3, Krt18, Hhex, Lrh1, C/EBPα, Hnf1a, and Hnf1b. […]
as §1

B1: Bmp4: ES cell growth factor, promotes Id protein family expression (protein, UniProt P21275 293-408, looked up)
Bone morphogenetic protein 4: SPKHHPQRSRKKNKNCRRHSLYVDFSDVGWNDWIVAPPGYQAFYCHGDCPFPLADHLNSTNHAIVQTLVNSVNSSIPKACCVPTELSAISMLYLDEYDKVVLKNYQEMVVEGCGCR
For B1, the neuronal differentiation [1] was “strong block”, the “MHC+ nuclei (differentiation) when added back to N2B27” value ([2]; LIF 1000 U/ml or Bmp4 10 ng/ml added back to N2B27, Day 4) was 0% and the muscle differentiation ([2]; continuation of LIF (1000 U/ml) or addition of Bmp4 (10 ng/ml), Day 0 to Day 4) was “strong block”. The AFP expression [3] was “did not reduce”.
